Data on two molecules can be found in patent US7754686B2, “Stabilized FGF formulations containing reducing agents” (Novartis Vaccines and Diagnostics, Inc., priority 2000, dated 2010).

Data set [1] in a line: Storage stability of lyophilized FGF-2 formulations by RP-HPLC (% main peak). The note with it: 0.35 and 3.5 mg/ml, 10 mM DTT, pH 6.0, storage at 30° C. for 1 year, FIG. 7. Type of data set: physicochemical. The protocol: Reversed Phase HPLC (RP-HPLC) was performed using a Waters 600S controller and a Waters 717 autosampler. Separations were accomplished on a Zorbax 300SB-CN, 4.6 mm ID×15 cm, 5:, cyano column with sample detection at 214 nm on a Waters 486 UV detector. Samples were run at 1.0 mL/min and injection volumes were 50 μL (˜15 μg of protein per injection).
rhFGF-2 was lyophilized using the following cycle: Vials were placed on pre-cool shelves set at 10° C. The shelf temperature was ramped at 40° C./hour to −50° C. where the vials were frozen for 2 hours. The temperature of the shelves was then ramped at 40° C. per hour to −25° C. and held for 2 hours to crystallize the glycine in the formulation. A vacuum of 50 μm was then initiated, and primary drying was accomplished over 32 hours. After primary drying was complete, the shelf temperature was ramped at 25° C./hour to 40° C. for 8 hours. The temperature was then reduced to 4° C. and the vials were stoppered and capped.
FGF-2 stability was examined in both liquid and lyophilized (freeze-dried) formulations using RP-HPLC. As in the previous study, liquid formulations were stored at 4° C., 17° C., and 30° C.
Lyophilized formulations were stored at 40° C. and 50° C. […]
Lyophilized formulations were stored for 12 months at 4° C., 25° C. and 30° C. Stability was monitored with a number of stability indicating assays. […]

Data set [2] in a line: Storage stability of liquid FGF-2 formulations by RP-HPLC (% main peak). Type of data set: physicochemical. As to conditions: 0-10 mM DTT, FIGS. 1-3. The protocol:
Reversed Phase HPLC (RP-HPLC) was performed using a Waters 600S controller and a Waters 717 autosampler. Separations were accomplished on a Zorbax 300SB-CN, 4.6 mm ID×15 cm, 5:, cyano column with sample detection at 214 nm on a Waters 486 UV detector. Samples were run at 1.0 mL/min and injection volumes were 50 μL (˜15 μg of protein per injection). […] Much of FGF-2 instability in pharmaceutical formulations can be attributed to oxidation. The stability of FGF-2 in different formulations can be quantitated by measuring the retention of the main peak using RP-HPLC. This main peak corresponds to the FGF-2 that remains in the reduced form. Using the analytical procedures described herein, the storage stability of FGF-2 under several conditions was followed by monitoring changes in the RP-HPLC main peak as a function of storage time at 4° C., 17° C., and 30° C. Experiments were conducted to determine the appropriate levels of dithiothreitol (DTT) required for maximum stability of FGF-2 formulations. Concentrations of DTT from 0 to 10 mM were examined in formulations between pH 5.5 and pH 6.5. In this example, all formulations were liquids and were produced from the same lot of bulk drug. Formulations were stored at 4° C., 17° C., and 30° C. […] Stability of the formulations was assessed by a number of assays. […]

Regarding “rhFGF-2: recombinant human FGF-2 having the sequence set forth in SEQ ID NO:1”, the “degradation (RP-HPLC main peak)” value in data set [1] was “little (if any) detectable degradation”.

Take `O[C@H](CS)[C@H](O)CS` (racemic) [DTT, dithiothreitol]: in data set [2], the “protection of FGF-2 from oxidation” value is listed as “protects FGF-2 from oxidation in a concentration-dependent manner”.
